Source: article PMC2756588

Assays:
Assay in all cases: SPOT array
GST = conditions: median of control spots 978
Sla1-2, P32790 = molecular target: T1, Sla1-2, P32790; conditions: median of control spots 712
T1 sequence (P32790 60-140, looked up): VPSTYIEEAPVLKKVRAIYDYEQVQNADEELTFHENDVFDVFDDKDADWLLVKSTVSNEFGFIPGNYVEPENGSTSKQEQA

Lsb3, P43603 = molecular target: T2, Lsb3, P43603; conditions: median of control spots 406
T2 sequence (P43603 385-451, looked up): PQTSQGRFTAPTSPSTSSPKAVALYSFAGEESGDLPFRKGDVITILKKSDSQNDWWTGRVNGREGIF

Fus1, P11710 = molecular target: T3, Fus1, P11710; conditions: median of control spots 1200
T3 sequence (P11710 432-512, looked up): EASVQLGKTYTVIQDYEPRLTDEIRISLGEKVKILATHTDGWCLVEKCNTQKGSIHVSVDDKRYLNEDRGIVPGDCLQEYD

Bud14, P27637 = molecular target: T4, Bud14, P27637; conditions: median of control spots 956
T4 sequence (P27637 247-328, looked up): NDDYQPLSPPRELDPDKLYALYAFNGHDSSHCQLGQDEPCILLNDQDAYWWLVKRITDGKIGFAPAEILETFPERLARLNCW

Pex13, P80667 = molecular target: T5, Pex13, P80667; conditions: median of control spots 1341
T5 sequence (P80667 295-386, looked up): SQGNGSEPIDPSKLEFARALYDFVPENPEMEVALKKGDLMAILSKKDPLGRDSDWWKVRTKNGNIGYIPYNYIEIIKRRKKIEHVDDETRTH

Boi1, P38041 = molecular target: T6, Boi1, P38041; conditions: median of control spots 1162
T6 sequence (P38041 1-86, looked up): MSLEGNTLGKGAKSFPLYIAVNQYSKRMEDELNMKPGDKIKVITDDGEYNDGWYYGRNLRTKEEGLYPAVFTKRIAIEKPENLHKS

Sho1, P40073 = conditions: median of control spots 1148
Cdc25, P04821 = molecular target: T7, Cdc25, P04821; conditions: median of control spots 969
T7 sequence (P04821 50-136, looked up): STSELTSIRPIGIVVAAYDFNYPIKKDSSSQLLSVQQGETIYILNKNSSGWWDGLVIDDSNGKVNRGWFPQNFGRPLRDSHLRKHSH

Rvs167, P39743 = conditions: median of control spots 2707
Nbp2, Q12163 = molecular target: T8, Nbp2, Q12163; conditions: median of control spots 357
T8 sequence (Q12163 103-180, looked up): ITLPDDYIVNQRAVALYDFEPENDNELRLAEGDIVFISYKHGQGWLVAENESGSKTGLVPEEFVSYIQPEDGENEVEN

Abp1, P15891 = molecular target: T9, Abp1, P15891; conditions: median of control spots 935
T9 sequence (P15891 535-592, looked up): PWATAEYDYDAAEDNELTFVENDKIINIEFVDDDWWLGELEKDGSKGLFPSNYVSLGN

Pin3, Q06449 = molecular target: T10, Pin3, Q06449; conditions: median of control spots 2171
T10 sequence (Q06449 53-122, looked up): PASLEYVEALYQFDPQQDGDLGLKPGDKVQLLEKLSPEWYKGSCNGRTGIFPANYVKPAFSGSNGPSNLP

Myo3, P36006 = conditions: median of control spots 468
Bem1-1, P29366 = conditions: median of control spots 4282
Bzz1-1, P38822 = molecular target: T11, Bzz1-1, P38822; conditions: median of control spots 4446
T11 sequence (P38822 478-572, looked up): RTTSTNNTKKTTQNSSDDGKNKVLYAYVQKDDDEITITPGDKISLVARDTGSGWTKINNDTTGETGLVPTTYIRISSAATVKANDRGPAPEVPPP

Lsb1, P53281 = molecular target: T12, Lsb1, P53281; conditions: median of control spots 388
T12 sequence (P53281 45-122, looked up): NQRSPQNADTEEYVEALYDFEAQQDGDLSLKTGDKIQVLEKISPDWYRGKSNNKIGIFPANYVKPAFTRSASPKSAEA

Myo5, Q04439 = molecular target: T13, Myo5, Q04439; conditions: median of control spots 471
T13 sequence (Q04439 1072-1160, looked up): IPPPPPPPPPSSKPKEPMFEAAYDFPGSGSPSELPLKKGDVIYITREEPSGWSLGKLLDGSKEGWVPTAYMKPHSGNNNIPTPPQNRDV

Sla1-3, P32790 = molecular target: T14, Sla1-3, P32790; conditions: median of control spots 5475
T14 sequence (P32790 344-424, looked up): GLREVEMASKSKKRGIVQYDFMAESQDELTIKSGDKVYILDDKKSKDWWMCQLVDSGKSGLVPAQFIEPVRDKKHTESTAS

Cyk3, Q07533 = molecular target: T15, Cyk3, Q07533; conditions: median of control spots 1451
T15 sequence (Q07533 1-83, looked up): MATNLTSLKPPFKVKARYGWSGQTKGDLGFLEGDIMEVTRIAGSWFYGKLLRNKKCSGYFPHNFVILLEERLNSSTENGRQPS

Boi2, P39969 = molecular target: T16, Boi2, P39969; conditions: median of control spots 1161
T16 sequence (P39969 32-116, looked up): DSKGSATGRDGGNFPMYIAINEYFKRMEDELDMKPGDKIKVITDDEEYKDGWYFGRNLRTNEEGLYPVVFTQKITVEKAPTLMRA

Bzz1-2, P38822 = molecular target: T17, Bzz1-2, P38822; conditions: median of control spots 4538
T17 sequence (P38822 568-633, looked up): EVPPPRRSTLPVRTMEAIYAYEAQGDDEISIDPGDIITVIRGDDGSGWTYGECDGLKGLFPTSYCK

Hof1, Q05080 = molecular target: T18, Hof1, Q05080; conditions: median of control spots 4086
T18 sequence (Q05080 590-669, looked up): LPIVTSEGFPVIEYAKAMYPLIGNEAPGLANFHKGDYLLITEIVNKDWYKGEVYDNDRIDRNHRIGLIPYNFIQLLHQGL

Hse1, P38753 = molecular target: T19, Hse1, P38753; conditions: median of control spots 1727
T19 sequence (P38753 208-285, looked up): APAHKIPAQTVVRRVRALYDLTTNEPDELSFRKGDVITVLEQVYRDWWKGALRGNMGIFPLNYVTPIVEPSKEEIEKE

Bbc1, P47068 = molecular target: T20, Bbc1, P47068; conditions: median of control spots 796
T20 sequence (P47068 1-78, looked up): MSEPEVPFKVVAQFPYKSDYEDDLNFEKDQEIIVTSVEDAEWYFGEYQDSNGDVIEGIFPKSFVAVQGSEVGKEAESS

Lsb4, P32793 = molecular target: T21, Lsb4, P32793; conditions: median of control spots 397
T21 sequence (P32793 402-468, looked up): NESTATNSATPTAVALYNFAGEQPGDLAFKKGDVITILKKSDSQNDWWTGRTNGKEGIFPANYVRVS

Bem1-2, P29366 = conditions: median of control spots 4347
Bem1-2, P29366, sequence (P29366 139-227): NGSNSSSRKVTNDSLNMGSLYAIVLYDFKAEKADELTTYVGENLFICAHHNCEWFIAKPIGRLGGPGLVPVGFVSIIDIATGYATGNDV

Bem1-1, P29366, sequence (P29366 55-141): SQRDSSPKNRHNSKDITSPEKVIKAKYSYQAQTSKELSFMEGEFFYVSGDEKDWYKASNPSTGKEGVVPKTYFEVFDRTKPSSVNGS
Sho1, P40073, sequence (P40073 287-367): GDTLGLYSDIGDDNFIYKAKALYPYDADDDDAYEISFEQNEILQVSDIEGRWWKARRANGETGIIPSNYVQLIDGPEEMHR
Rvs167, P39743, sequence (P39743 419-482): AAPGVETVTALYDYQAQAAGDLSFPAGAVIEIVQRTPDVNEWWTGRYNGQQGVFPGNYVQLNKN

SPOT intensity (GST)	SPOT intensity (Sla1-2, P32790)	SPOT intensity (Lsb3, P43603)	SPOT intensity (Fus1, P11710)	SPOT intensity (Bud14, P27637)	SPOT intensity (Pex13, P80667)	SPOT intensity (Boi1, P38041)	SPOT intensity (Sho1, P40073)	SPOT intensity (Cdc25, P04821)	SPOT intensity (Rvs167, P39743)	SPOT intensity (Nbp2, Q12163)	SPOT intensity (Abp1, P15891)	SPOT intensity (Pin3, Q06449)	SPOT intensity (Myo3, P36006)	SPOT intensity (Bem1-1, P29366)	SPOT intensity (Bzz1-1, P38822)	SPOT intensity (Lsb1, P53281)	SPOT intensity (Myo5, Q04439)	SPOT intensity (Sla1-3, P32790)	SPOT intensity (Cyk3, Q07533)	further results	Binder
1	0	5	136	64	4	15	123	131	3	176	158	7	6	1	3	114	0	117	5	SPOT intensity (Boi2, P39969): 4; SPOT intensity (Bzz1-2, P38822): 5; SPOT intensity (Hof1, Q05080): 17; SPOT intensity (Hse1, P38753): 19; SPOT intensity (Bbc1, P47068): 395; SPOT intensity (Lsb4, P32793): 10; SPOT intensity (Bem1-2, P29366): 8	HRRRRVFSIPSLKSI
0	0	2	0	3	6	0	19	0	2	0	5	0	0	0	0	0	0	17	0	SPOT intensity (Boi2, P39969): 0; SPOT intensity (Bzz1-2, P38822): 3; SPOT intensity (Hof1, Q05080): 3; SPOT intensity (Hse1, P38753): 4; SPOT intensity (Bbc1, P47068): 2; SPOT intensity (Lsb4, P32793): 2; SPOT intensity (Bem1-2, P29366): 0	VNFRRIPTGPDSPPT
1	0	8	43	24	2	9	270	28	4	74	133	1	7	1	2	0	1	25	5	SPOT intensity (Boi2, P39969): 0; SPOT intensity (Bzz1-2, P38822): 5; SPOT intensity (Hof1, Q05080): 4; SPOT intensity (Hse1, P38753): 16; SPOT intensity (Bbc1, P47068): 515; SPOT intensity (Lsb4, P32793): 6; SPOT intensity (Bem1-2, P29366): 5	RRRRRPHRIERPLSN
2	2	0	64	34	3	9	98	32	3	53	72	0	0	3	3	0	0	34	3	SPOT intensity (Boi2, P39969): 2; SPOT intensity (Bzz1-2, P38822): 6; SPOT intensity (Hof1, Q05080): 4; SPOT intensity (Hse1, P38753): 12; SPOT intensity (Bbc1, P47068): 175; SPOT intensity (Lsb4, P32793): 1; SPOT intensity (Bem1-2, P29366): 4	KRKRFNLLLPKPYLT
